Assay results: the nanobody polyreactivity screen of Harvey et al. (2022)

assay: yeast display, Sf9 membrane polyspecificity reagent, FACS + sequencing; frameworks hold sequencing errors
In short: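 After 36–48 hours of galactose induction, yeast (Saccharomyces cerevisiae BJ5465) displaying a synthetic nanobody library were stained at 4 °C for 1 hour with 10% biotinylated, detergent-solubilized Sf9 membrane reagent. Streptavidin microbeads enriched the stained cells before FACS sorting into low and high (top ~1%) gates on anti-HA and streptavidin fluorescence. Each clone's polyreactivity label reflects its gate of origin.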

Sequence | polyreactivity (PSR sort gate)
QVQLVESGGGLVQAGGSLRLSCAASGSTFRPNAMGWYRQAPGKERELVATIRTSGGTTYYADSVKGRFTISRDNAKNTVYLQMNSLKPEDTAVYYCAATKFGSSYDYWGQGTQVTVSS | low polyreactivity
QVQLVESGGGLVQAGGSLRLSCAASGSTFRPYAMGWYRQAPGKERELVAAITSGGNTYYADSVKGRFTISRDNAKNTVYLQMNSLKPEDTAVYYCAARPYYYIVRGTEYDYWGQGTQVTVSS | high polyreactivity
QVQLVESGGGLVQAGGSLRLSCAASGSTFRPYAMGWYRQAPGKERELVARITGSGDSTYYADSVKGRFTISRDNAKNTVYLQMNSLKPEDTAVYYCAREFDYSLSGFDYWGQGTQVTVSS | low polyreactivity
QVQLVESGGGLVQAGGSLRLSCAASGSTFRRNAMGWYRQAPGKERELVAAITSGGSTYYADSVKGRFTISRDNAKNTVYLQMNSLKPEDTAVYYCNRLYRWKKPLDYDYWGQGTQVTVSS | high polyreactivity
QVQLVESGGGLVQAGGSLRLSCAASGSTFRRNAMGWYRQAPGKERELVAAITWRGTSTYYADSVKGRFTISRDNAKNTVYLQMNSLKPEDTAVYYCAADRFVRYWGQGTQVTVSS | high polyreactivity
QVQLVESGGGLVQAGGSLRLSCAASGSTFRRYAMGWYRPAPGKERELVAAISTRGGSTYYADSVKGRFTISRDNAKNTVYLQMNSLKPEDTAVYYCAADEPKYTSSSSRRYGYWGQGTQVTVSS | high polyreactivity
QVQLVESGGGLVQAGGSLRLSCAASGSTFRRYAMGWYRQAPGKERELGAAISRSGGTTYYADSVKGRFTISRDNAKNTVYLQMNSLKPEDTAVYYCNARYPVVRYDYWGQGTQVTVSS | high polyreactivity
QVQLVESGGGLVQAGGSLRLSCAASGSTFRRYAMGWYRQAPGKERELVATITKRGGSTYYADSVKGRFTISRDNAKNTVYLQMNSLKPEDTAVYYCAADSAYWTYEYWGQGTQVTVSS | high polyreactivity
QVQLVESGGGLVQAGGSLRLSCAASGSTFRRYAMGWYRQAPWKERELVAAITRRGITYYADSVKGRFTISRDNAKNTVYFQMNSLKPEDTAVYYCAATTFGPYALYPRYYYWGQGTQVTVSS | high polyreactivity
QVQLVESGGGLVQAGGSLRLSCAASGSTFRRYGMGWYRQAPGKEREWVAAISKGGTRTYYADSVKGRFTISRDNAKNTVYLQMNSLKPEDTAVYYCAAAGAPSSTPQKEYYWGQGTQVTVSS | high polyreactivity
QVQLVESGGGLVQAGGSLRLSCAASGSTFRSNAMGWYRPAPGKERELVAAISSRVGTTYYADSVKGRFTISRDNAKNTVYLQMNSLKPEDTAVYYCAAQGWRYYRTVVPMDYWGQGTQVTVSS | low polyreactivity
QVQLVESGGGLVQAGGSLRLSCAASGSTFRTNTMGWYRQAPGKERELVAAITGTGGSTYYADSVKGRFTISRDNAKNTVYLQMNSLKPEDTAVYYCAKRYYRWRRDYSWGQGTQVTVSS | high polyreactivity
QVQLVESGGGLVQAGGSLRLSCAASGSTFRTYAMGWYRQAPGKERELVAAISWSGGITYDADSVKGRFTISRDNAKNTVYLQMNSLKPEDTAVYFCDARLASWPLTYDFQWYEYWGQGTQVTVSS | low polyreactivity
QVQLVESGGGLVQAGGSLRLSCAASGSTFRVNAMGWYRQAPGKEREFVAGISFGGGSTYYADSVKGRFTISRDNAKNTVYLQMNSLKPEDTAVYYCNARGKGSGAVRYNYWGQGTQVTVSS | high polyreactivity
QVQLVESGGGLVQAGGSLRLSCAASGSTFRVNVMGLYRQAPGKERELVAAIDSGGSTYYADSVKGRFTISRDNAKNTVYLQMNSLKPEYTAVYYCNSRVDSPSPYDYWGQGTQVTVSS | low polyreactivity
QVQLVESGGGLVQAGGSLRLSCAASGSTFRVYAMGCYRQAPGKERELVAAISGSGGSTYYADSVKGRFTISRDNAKNTVYLQMNSLKPEDTAVYYCAARSWYTEYYWGQGTQVTVSS | high polyreactivity
QVQLVESGGGLVQAGGSLRLSCAASGSTFRVYAMGWYRQAPGKERELVAAITRSGGRTHYADSVKGRFTISRDNAKNTVYLQMNSLKPEDTAVYYCAARFYYTKPEDYYWGQGTQVTVSS | high polyreactivity
QVQLVESGGGLVQAGGSLRLSCAASGSTFRWNAMGWYRQAPGKERELVAAISNGGSTNYADSVKGRFTISRDNAKNTVYLQMNSLKPEDTAVYYCATDGWYGQHYYDYDFDYYYWGQGTQVTVSS | low polyreactivity
QVQLVESGGGLVQAGGSLRLSCAASGSTFRWNAMGWYRQAPGKERELVATITWGGGSTYYADSVKGRFTISRDNAKNTVYLQMNSLKPEDTAVYYCARRQRARYSYYQYNYWGQGTQVTVSS | high polyreactivity
QVQLVESGGGLVQAGGSLRLSCAASGSTFRWYAMGWYRQAPGKERELVASITWSGGGTYYADSVKGRFTISRDNAKNTVYFQMNSLKPEDTAVYYCNRRTWRYETRGDDYWGQGTQVTVSS | high polyreactivity
QVQLVESGGGLVQAGGSLRLSCAASGSTFRYNPMGWYRQAPGNERELVAAISSGGYTNYADSVKGRFTISRDNAKNTVYLQMNSLKPEDTAVYYCAARYYPWKVNRFSYWYDYWGQGTLVTVSS | high polyreactivity
QVQLVESGGGLVQAGGSLRLSCAASGSTFRYNTMGWYRQAPGKERELVAAINISSSSTYYADSVKGRFTISRDNAKNTVYLQMNSLKPEDTAVYYCAKRDFVPIATDENDDYWGQGTQVTVSS | low polyreactivity

Sequence | polyreactivity (PSR sort gate)
QVQLVESGGGLVQAGGSLRLSCAASGSTFRYNTMGWYRQAPGKERELVAGITSGGGRTYADSVKGRFTISRDNAKNTVYLQMNSLKPEDTAVYYCAAGKYYFLSRYDSWGQGTQVTVSS | low polyreactivity
QVQLVESGGGLVQAGGSLRLSCAASGSTFRYNTMGWYRQAPGTERELVATISWRGGRTYYADSVKGRFTISRDNAKNTVYLQMNSLKPEDTAVYYCASIATVPRDYGGNYWGQGTQVTVSS | low polyreactivity
QVQLVESGGGLVQAGGSLRLSCAASGSTFRYNVMGWYRQAPGKERDLVAAITRRGSRTYYADSVKGRFTISRDNAKNTVYLQMNSLKPEDTAVYYCNKYSLSVPANDDYWGQGSQVTVSS | high polyreactivity
QVQLVESGGGLVQAGGSLRLSCAASGSTFRYYALGWYRQAPGKERELVASISIGGGPTYYADSVKGRFTISRDNAKNTVYLQMHIQKPEDTAVYYCAAERTIRAARPVVRTFDYWGHGTQVTVSS | low polyreactivity
QVQLVESGGGLVQAGGSLRLSCAASGSTFRYYAMGGSRQEPGKESELVAVISTSGNTYYADSVKGRFTISRDNAKNSVYLQMNSLKPEDTAVYYCAARGVGGQISQEYDYWGQGTQVTVSS | low polyreactivity
QVQLVESGGGLVQAGGSLRLSCAASGSTFRYYAMGWYRKAPGKERELVAAITSSGGSTYYADSVKGRFTISRDNAKNTVYLQMNSLKPEDTAVYYCAVAVKNWVKLNYWGQGTQVTVSS | high polyreactivity
QVQLVESGGGLVQAGGSLRLSCAASGSTFRYYAMGWYRQAPGKERELVAAISGSGGRTYYADSVKGRFTISRDNAKNTVYLQMNSLKPEDTAVYYCITRGRRTDYDYWGQGNQVTVSS | high polyreactivity
QVQLVESGGGLVQAGGSLRLSCAASGSTFRYYAMGWYRQAPGKERELVAAISGSGGRTYYADSVKGRFTISRDNAKNTVYLQMNSLKPEDTAVYYCNTRGRRTDYDYWGQGTQVTVSS | high polyreactivity
QVQLVESGGGLVQAGGSLRLSCAASGSTFRYYAMGWYRQAPGKERELVAAISSSGGSTYYADSVKGRFTISRDNAKNTVYLQMNSLKPEDTAVYYCAARHYSYRVEYDYWGQGTQVTVSS | high polyreactivity
QVQLVESGGGLVQAGGSLRLSCAASGSTFRYYAMGWYRQAPGKERELVAAITWGGGNTYYADSVKGRFTISRDNAKNTVYLQMNSLKPEDTAVYYCNKVQSHWLDSWGQGTQVTVSS | low polyreactivity
QVQLVESGGGLVQAGGSLRLSCAASGSTFRYYAMGWYRQAPGKERELVAGITNGGRTNYADSVQGRFTISRDNAKNTVYLQMHSLKPEDTAVYYCAADLAWRRIGYNYWGQGTQVTVSS | high polyreactivity
QVQLVESGGGLVQAGGSLRLSCAASGSTFRYYAMGWYRQAPGKERELVASISSGGSTNYADSVKGRFTISRDNAKNTVYLQMNSLKPEDTAVYYCNADSWTVNRRYYYYRYEYWGQGTQVTVSS | low polyreactivity
QVQLVESGGGLVQAGGSLRLSCAASGSTFRYYAMGWYRQAPGKESELVAAITSSGTSTYYADSVKGRFTISRDNAKNTVYLQMNSLKPEDTAVYYCAAPPVYKWVSSRYDYWGQGTQVTVSS | low polyreactivity
QVQLVESGGGLVQAGGSLRLSCAASGSTFRYYAMGWYRQARGKERELVAAITSSGGRTYYADSVKGRFTISRDNAKNTVYLQMNSLKPEDTAVYYCAAYAYYHTGDDYWGQGTQVTVSS | high polyreactivity
QVQLVESGGGLVQAGGSLRLSCAASGSTFRYYARGWYRPAPGKERELVAAITRSGGSTYYADSVKGRFTISRDNAKNTVYLQMNSLKPEDTAVYYCAARWAYPHKTYGTEQTEYDYWGQGTQVTVSS | high polyreactivity
QVQLVESGGGLVQAGGSLRLSCAASGSTFRYYTMGWYRQAPGKERELVADITIGGSTYYADSVKGRFTISRDNSKNSVYLQMYSLKPEDTAVYYCAARSTGGRIFATGVAYAYWGQGTQVTVSS | low polyreactivity
QVQLVESGGGLVQAGGSLRLSCAASGSTFRYYVMGWYRQAPWKERELVAGITKSGGNTYYADSVKGRFTISRDNAKNTVYLQMNSLKPEDTAVYYCAARGLWTRGYYYWGQGTQVTVSS | high polyreactivity
QVQLVESGGGLVQAGGSLRLSCAASGSTFRYYVMGWYRTAPGKERDLVAVISGSGGYTYYADSVKGRFTISRDNAKNTVYLQMNSLKPEDTAVYYCAAARKFIPGRGRTYDSWGQGTQVTVSS | high polyreactivity
QVQLVESGGGLVQAGGSLRLSCAASGSTFSANAMGWYRPAPGKERELVAAISRSGTRTYYADSVKGRFTISRDNAKNTVYLQMNSLKPEDTAVYYCAAYVYQYGYDYWGQGTQVTVSS | high polyreactivity
QVQLVESGGGLVQAGGSLRLSCAASGSTFSANTMGWYRQAPGKERELVAGITNTGDTYYADSVKGRFTISRDNAKNTVYFQMNSLKPEDTAVYYCAADSWRRTDGAYWSTVYYWGQGTQVTVSS | low polyreactivity
QVQLVESGGGLVQAGGSLRLSCAASGSTFSAYGMGWYRQAPGKERELVARISWNGGSTYYADSVKGRFTISRDNAKNTVYLQMNSLKPEDTAVYYCNTELVGHPDWLSWRYYYWGQGTQVTVSS | low polyreactivity
